Legend:
CRTC3 KO mice [1] = assay: Tube dominance test, CRTC3 KO mice housed with WT mice; format: in vivo, mouse
Experimental: (§1) The apparatus for the tube dominance test was made of a transparent plastic tube with a length of 30 cm and an inner diameter of 2.5 cm. To allow the mice to adapt to passing through the inside of the tube, the respective mice were trained to pass across the tube alternately on both sides for two or three consecutive days. During the training period, care was taken to ensure that the mice passed through the tube as naturally as possible without causing stress. This test was performed after identifying that all mice could freely pass through the tube without stress.
During the dominance test period, a total of 2 mice, one at each end of the tube, were placed to meet in the middle of the tube. In a case where one mouse pushed the other mouse out of the tube, one (1) winning point was earned. The test was repeated three times. […] For each test, win or loss was determined by winning points. […]
(§2) First, starting at 1 month of age, the CRTC3 KO mice and the WT mice were housed in one group and raised together for 2 months. […] To determine changes in ranking of the mice in the group, social dominance ranking was evaluated by a tube dominance test daily for 15 days starting at 3 months of age. The respective mice in the group were tested in turn, and dominance ranking of the mice in the group was determined based on their winning points. […]

C57BL/6 mice = assay: Tube dominance test, lowest-ranked mouse in C57BL/6 mouse group; format: in vivo; conditions: lowest-ranked C57BL/6 mouse, intracerebroventricular via osmotic pump
Experimental: as §1
During the dominance test period, a total of 2 mice, one at each end of the tube, were placed to meet in the middle of the tube. In a case where one mouse pushed the other mouse out of the tube, one (1) winning point was earned. The test was repeated three times. […] For each test, win or loss was determined by winning points.
as §2

CRTC3 KO mice [2] = assay: Warm spot test; format: in vivo, mouse; conditions: ICV osmotic pump, before vs after
Experimental: The warm spot test was performed using the following apparatus and method. The test apparatus was a box with dimensions of 30 cm by 30 cm, and the bottom was kept cold by ice. A fan-shaped heating mat of approximately 3 cm was laid one corner of the bottom to warm only that part of the bottom. In the first test, the mice were placed in a box with all bottom surfaces cold and kept thereon for 30 minutes to get used to the environment. After 30 minutes, the mice were moved to a box with a heating mat on one corner of the bottom, and the time each mouse occupied the bottom surface with the heating mat was measured for 20 minutes. Based on the measured time, each mouse's ranking in the group was determined.
First, starting at 1 month of age, the CRTC3 KO mice and the WT mice were housed in one group and raised together for 2 months. This allowed social ranking to be naturally formed among the mice in the same group. To determine changes in ranking of the mice in the group, social dominance ranking was evaluated by a tube dominance test daily for 15 days starting at 3 months of age. The respective mice in the group were tested in turn, and dominance ranking of the mice in the group was determined based on their winning points. […]

[3] = system: CRTC3 KO primary astrocytes; assay: Cell shape index (CSI) of astrocytes, GFAP immunocytochemistry; format: cell-based, mouse; conditions: AREG 200 ng/ml, vs WT astrocytes
Experimental: Next, to identify localization of CRTC3 in the cellular changes induced in astrocytes, comparison of astrocyte shape was performed between the CRTC3 KO mice and the WT mice. The shape of the cells was observed using GFAP as an astrocyte marker through fluorescent staining according to the method described in Experimental Example 1.4.
To more accurately compare the astrocyte shapes, complexity of the astrocyte shape was determined using the cell shape index (CSI) defined as follows (in the formula, P is a cell's perimeter and A is a cell's area).
Immunocytochemistry was performed as follows. First, a 12 mm coverslip (Marienfeld, Germany) coated with PDL was placed in a 24-well plate, and cells were plated thereon. Then, the cells were fixed with 4% paraformaldehyde (Biosesang, Korea) for 10 minutes. The cells were washed three times with PBS, and then subjected to permeabilization with PBS containing 0.1% Triton X-100 for 5 minutes at room temperature. The cells were washed again three times and blocked with PBS containing 5% bovine serum albumin (BSA) at 37° C. for 30 minutes. The cells were washed three times and incubated with mouse anti-GFAP antibody (Chemicon-Millipore, USA) overnight at 4° C. […] Then, each sample was mounted using a fluorescence mounting solution (DAKO, USA) for imaging.

B1: AREG: Recombinant mouse amphiregulin from R&D Systems, SEQ ID NO: 11; EGF receptor ligand (protein, listed as Mus musculus)
chain: SVRVEQVIKPKKNKTEGEKSTEKPKRKKKGGKNGKGRRNKKKKNPCTAKFQNFCIHGECRYIENLEVVTCNCHQDYFGERCGEKSMKTHSEDDKDLSK
modifications: Mouse AREG Protein
notes: EGF receptor ligand
- cages in which changes (increase) in social dominance ranking were observed after administration (CRTC3 KO mice [1]; CRTC3 KO mice with low ranking, housed with WT mice, intracerebroventricular via osmotic pump): 81%
- winning points after vs before administration (CRTC3 KO mice [1]; CRTC3 KO mice, ICV osmotic pump): increase in winning points
- cages in which ranking of the lowest-ranked mouse increased after administration (C57BL/6 mice): 71%
- social dominance ranking in warm spot test after administration (CRTC3 KO mice [2]): increased social dominance ranking
- time occupying the warm spot after administration (CRTC3 KO mice [2]): increase in the time they occupied the warm spot
- cell shape index (CSI) [3]: increased a CSI level of the primary astrocytes in the CRTC3 KO mice to that of the WT astrocytes
